Laboratory results reported in the supplement of paper PMC9112550, “Optimization of the antimicrobial peptide Bac7 by deep mutational scanning” (BMC Biology, 2022).

tested on: Escherichia coli TOP10; test: shrunken log2 fold change of peptide-encoding DNA abundance (4.5 h post-induction vs induction); higher = less antimicrobial activity (less host growth inhibition); conditions: time post-induction: 4.5 h; library: site-saturation at positions 5, 18, 19, 20
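Also: peptides expressed intracellularly from a pBAD plasmid library in pooled LB shake-flask culture, induced with 0.3% L-arabinose, DNA abundance read by NGS, three biological replicates, DESeq2 with apeglm shrinkage.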

| Sequence | shrunken log2 fold change |
| --- | --- |
| RRIRGRPPRLPRPRPRPHWCPRP | 0.00693 |
| RRIRGRPPRLPRPRPRPIAEPRP | 3.26 |
| RRIRGRPPRLPRPRPRPIALPRP | 0.16 |
| RRIRGRPPRLPRPRPRPIAWPRP | 1.05 |
| RRIRGRPPRLPRPRPRPICTPRP | 1.08 |
| RRIRGRPPRLPRPRPRPIDWPRP | 0.559 |
| RRIRGRPPRLPRPRPRPIEIPRP | -0.0543 |
| RRIRGRPPRLPRPRPRPIFAPRP | 0.609 |
| RRIRGRPPRLPRPRPRPIFGPRP | -0.0743 |
| RRIRGRPPRLPRPRPRPIGSPRP | 0.45 |
| RRIRGRPPRLPRPRPRPIMEPRP | 0.229 |
| RRIRGRPPRLPRPRPRPIMHPRP | 0.341 |
| RRIRGRPPRLPRPRPRPIMQPRP | 0.105 |
| RRIRGRPPRLPRPRPRPINIPRP | 0.00461 |
| RRIRGRPPRLPRPRPRPIPYPRP | -0.1 |
| RRIRGRPPRLPRPRPRPIQKPRP | 0.0229 |
| RRIRGRPPRLPRPRPRPIREPRP | -0.0123 |
| RRIRGRPPRLPRPRPRPIRPPRP | 0.209 |
| RRIRGRPPRLPRPRPRPIRYPRP | -0.0811 |
| RRIRGRPPRLPRPRPRPISDPRP | 0.385 |
| RRIRGRPPRLPRPRPRPITFPRP | -0.148 |
| RRIRGRPPRLPRPRPRPITRPRP | 0.133 |
| RRIRGRPPRLPRPRPRPIVHPRP | 0.342 |
| RRIRGRPPRLPRPRPRPIVYPRP | -0.0951 |
| RRIRGRPPRLPRPRPRPIWIPRP | 0.0517 |

| Sequence | shrunken log2 fold change |
| --- | --- |
| RRIRGRPPRLPRPRPRPIWQPRP | 0.349 |
| RRIRGRPPRLPRPRPRPIWSPRP | 0.15 |
| RRIRGRPPRLPRPRPRPIYMPRP | -0.191 |
| RRIRGRPPRLPRPRPRPKCGPRP | 0.814 |
| RRIRGRPPRLPRPRPRPKDIPRP | -0.0187 |
| RRIRGRPPRLPRPRPRPKFAPRP | 0.684 |
| RRIRGRPPRLPRPRPRPKFDPRP | 0.867 |
| RRIRGRPPRLPRPRPRPKFIPRP | -0.425 |
| RRIRGRPPRLPRPRPRPKFYPRP | -0.278 |
| RRIRGRPPRLPRPRPRPKGCPRP | 2.83 |
| RRIRGRPPRLPRPRPRPKGMPRP | 0.442 |
| RRIRGRPPRLPRPRPRPKHIPRP | -0.00571 |
| RRIRGRPPRLPRPRPRPKINPRP | 0.426 |
| RRIRGRPPRLPRPRPRPKKCPRP | 0.544 |
| RRIRGRPPRLPRPRPRPKLTPRP | 0.808 |
| RRIRGRPPRLPRPRPRPKMKPRP | 0.723 |
| RRIRGRPPRLPRPRPRPKNRPRP | 0.368 |
| RRIRGRPPRLPRPRPRPKPIPRP | 0.177 |
| RRIRGRPPRLPRPRPRPKQHPRP | 0.906 |
| RRIRGRPPRLPRPRPRPKRVPRP | 0.198 |
| RRIRGRPPRLPRPRPRPKSSPRP | 0.508 |
| RRIRGRPPRLPRPRPRPKSVPRP | 0.591 |
| RRIRGRPPRLPRPRPRPKTDPRP | 0.797 |
| RRIRGRPPRLPRPRPRPKTGPRP | 0.692 |
| RRIRGRPPRLPRPRPRPKTNPRP | 0.779 |

| Sequence | shrunken log2 fold change |
| --- | --- |
| RRIRGRPPRLPRPRPRPKVYPRP | -0.0773 |
| RRIRGRPPRLPRPRPRPKWQPRP | 0.194 |
| RRIRGRPPRLPRPRPRPLAAPRP | 1.91 |
| RRIRGRPPRLPRPRPRPLAWPRP | 1.43 |
| RRIRGRPPRLPRPRPRPLCQPRP | 0.712 |
| RRIRGRPPRLPRPRPRPLDDPRP | 1.09 |
| RRIRGRPPRLPRPRPRPLDGPRP | 0.342 |
| RRIRGRPPRLPRPRPRPLDIPRP | -0.0476 |
| RRIRGRPPRLPRPRPRPLELPRP | 0.741 |
| RRIRGRPPRLPRPRPRPLFHPRP | 0.134 |
| RRIRGRPPRLPRPRPRPLGCPRP | 1.27 |
| RRIRGRPPRLPRPRPRPLHQPRP | 0.665 |
| RRIRGRPPRLPRPRPRPLKRPRP | 0.216 |
| RRIRGRPPRLPRPRPRPLNPPRP | 0.215 |
| RRIRGRPPRLPRPRPRPLPEPRP | 0.884 |
| RRIRGRPPRLPRPRPRPLQGPRP | 0.226 |
| RRIRGRPPRLPRPRPRPLQVPRP | 0.458 |
| RRIRGRPPRLPRPRPRPLWCPRP | 0.204 |
| RRIRGRPPRLPRPRPRPLWFPRP | 0.183 |
| RRIRGRPPRLPRPRPRPLWHPRP | 0.552 |
| RRIRGRPPRLPRPRPRPLWVPRP | 0.472 |
| RRIRGRPPRLPRPRPRPLYLPRP | -0.221 |
| RRIRGRPPRLPRPRPRPMAEPRP | 1.73 |
| RRIRGRPPRLPRPRPRPMAFPRP | 0.572 |
| RRIRGRPPRLPRPRPRPMCFPRP | 0.716 |
